1 substance from paper PMC8762078, “An ALS-associated variant of the autophagy receptor SQSTM1/p62 reprograms binding selectivity toward the autophagy-related hATG8 proteins” (The Journal of Biological Chemistry, 2021) can be followed below.

The target of the assay is p62 WT-AIM peptide (human). As to the kind of experiment: native MS; ESI-MS competition binding under nondenaturing conditions: each hATG8 titrated into an equimolar mixture of WT-AIM and L341V-AIM peptides (each 10 μM); read-out is the ratio of peak intensities of unbound WT and L341V peptides; ratios given for 20 μM hATG8; two independent experiments.

GABARAPL1, sequence (Q9H0R8 whole entry): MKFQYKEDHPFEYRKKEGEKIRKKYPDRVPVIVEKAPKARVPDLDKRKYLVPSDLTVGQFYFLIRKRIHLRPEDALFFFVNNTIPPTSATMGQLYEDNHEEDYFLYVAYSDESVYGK

Take “GABARAPL1 (from UniProt Q9H0R8 1-117) (natural protein)”: the ratio of unbound WT:L341V AIM peptides at 20 μM hATG8 (reference: L341V-AIM) amounted to 0.5.
